According to PMC10462110 (bioRxiv, 2023):
Like-named read-outs stand apart in the source and are kept apart here. Each block holds one molecule with its values, some of them ahead of it. Where no end group is shown, it is not given here. [ ]: non-standard residue; d: D form. pS = N[C@@H](COP(=O)(O)O)C(=O)O

Key:
[1] = biological target: GFP-tagged tauC3 S416E, doxycycline-inducible in HEK293 Flp-In T-REx cells; assay: co-IP
[2] = biological target: Recombinant human CHIP (C-terminus of Hsc70 interacting protein; STUB1) (human) (UniProt Q9UNE7); assay: ELISA
[3] = biological target: CHIP (UniProt Q9UNE7); assay: differential scanning fluorimetry of CHIP; conditions: reference: WT peptide; sites S416
[4] = biological target: CHIP (UniProt Q9UNE7); assay: co-IP with anti-Tau-5, CHIP blot; conditions: reference: GFP-tauC3; sites S416
[5] = biological target: Recombinant human CHIP (C-terminus of Hsc70 interacting protein; STUB1) (human) (UniProt Q9UNE7); assay: ELISA; remark: listed apart in the source
[6] = biological target: CHIP, NanoBiT fusion expressed in HEK293T cells (UniProt Q9UNE7); assay: split reporter
[7] = biological target: T1, CHIP F131A (human, UniProt Q9UNE7 1-303, F131A); assay: differential scanning fluorimetry
T1 sequence (looked up): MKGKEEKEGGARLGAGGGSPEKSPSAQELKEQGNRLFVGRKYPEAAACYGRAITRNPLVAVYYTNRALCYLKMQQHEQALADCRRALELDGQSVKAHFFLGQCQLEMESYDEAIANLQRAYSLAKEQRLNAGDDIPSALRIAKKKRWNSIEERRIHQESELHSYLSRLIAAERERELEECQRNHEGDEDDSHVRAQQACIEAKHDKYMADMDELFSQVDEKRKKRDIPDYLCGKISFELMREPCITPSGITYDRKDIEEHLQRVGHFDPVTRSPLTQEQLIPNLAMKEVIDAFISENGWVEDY

[8] = biological target: T2, CHIP D134A (human, UniProt Q9UNE7 1-303, D134A); assay: fluorescence polarisation
T2 sequence (looked up): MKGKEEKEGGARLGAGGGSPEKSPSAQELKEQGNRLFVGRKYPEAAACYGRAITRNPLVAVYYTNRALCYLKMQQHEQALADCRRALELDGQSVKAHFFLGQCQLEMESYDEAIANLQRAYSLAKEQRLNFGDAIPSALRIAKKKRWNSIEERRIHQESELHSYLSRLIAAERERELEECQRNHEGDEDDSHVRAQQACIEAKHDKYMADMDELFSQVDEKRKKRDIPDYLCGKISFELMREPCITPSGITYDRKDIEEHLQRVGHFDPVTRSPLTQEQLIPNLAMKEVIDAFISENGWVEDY

[9] = biological target: T3, Recombinant human CHIP (C-terminus of Hsc70 interacting protein; STUB1) (human, UniProt Q9UNE7 1-303); assay: fluorescence polarisation
T3 sequence (looked up): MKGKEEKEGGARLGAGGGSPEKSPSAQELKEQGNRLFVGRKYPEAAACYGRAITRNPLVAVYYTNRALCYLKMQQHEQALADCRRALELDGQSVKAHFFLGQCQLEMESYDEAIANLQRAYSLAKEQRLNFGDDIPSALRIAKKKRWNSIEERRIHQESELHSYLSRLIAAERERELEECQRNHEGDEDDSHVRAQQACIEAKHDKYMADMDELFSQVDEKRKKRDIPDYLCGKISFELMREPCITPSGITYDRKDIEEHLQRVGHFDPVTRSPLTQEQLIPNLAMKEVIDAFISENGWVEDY

[10] = biological target: T2, CHIP D134A; assay: differential scanning fluorimetry

relative amount of CHIP bound (normalized to tauC3) [1]: 0.55
Molecule: endogenous CHIP (from UniProt Q9UNE7 1-303) (enzyme)

other: CHIP apparent Tm [3]: weaker; reference 48.81 ± 0.11
Molecule: tau (MAPT); tauC3 proteoform C-terminal 10-mer ending at D421 (from UniProt P10636-8) S416E peptide (…)

other: relative CHIP bound, normalised to tauC3 [4]: 0.55
Molecule: tau (MAPT); tauC3 proteoform tauC3, C-terminus at D421 (from UniProt P10636-8) GFP-tauC3 S416E

binding result [7]: binds | binding result [10]: binds | Ki [9]: 2410 ± 330 nM
Molecule: Ac-SSTGEIDMVD [pS416 phosphomimetic 10-mer tauC3 peptide (SSTGEIDMVD)]

Ki [8]: 1840 ± 230 nM | Ki [9]: 1010 ± 990 nM
Molecule: SSTG[pS]IDMVD [tauC3 pS416 10-mer peptide]

The remaining lines, values behind:

Molecule: natively phosphorylated tauC3 (p.tauC3) from Sf9 insect cells (domain or fragment)
Kd [2]: 700 nM

Molecule: tauC3 (unmodified, produced from E. coli) (domain or fragment)
Kd [2]: 190 nM | Kd [5]: 90 nM

Molecule: tauC3 S416E (purified protein) (domain or fragment)
Kd [5]: 780 nM

Molecule: tauC3, NanoBiT fusion expressed in HEK293T cells (domain or fragment)
fold binding over FL tau [6]: 5 fold

Molecule: Ac-SSTGSIDMVD-OH [acetylated 10-mer peptide corresponding to the tauC3 C-terminus (Ac-SSTGSIDMVD-OH)]
binding result [7]: binds | Ki [8]: 5570 ± 340 nM | Ki [9]: 150 ± 20 nM
